Earlier results, collected in paper PMC4115806.

Biological target: EPCR (Homo sapiens) (UniProt Q9UNN8)
Sequence (Q9UNN8 18-210): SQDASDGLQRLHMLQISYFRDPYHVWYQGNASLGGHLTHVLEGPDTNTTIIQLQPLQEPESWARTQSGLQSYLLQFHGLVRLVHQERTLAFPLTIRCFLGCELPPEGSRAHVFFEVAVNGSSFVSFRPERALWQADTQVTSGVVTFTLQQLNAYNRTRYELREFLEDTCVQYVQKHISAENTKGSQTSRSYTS

protein C, sequence (P04070 43-197): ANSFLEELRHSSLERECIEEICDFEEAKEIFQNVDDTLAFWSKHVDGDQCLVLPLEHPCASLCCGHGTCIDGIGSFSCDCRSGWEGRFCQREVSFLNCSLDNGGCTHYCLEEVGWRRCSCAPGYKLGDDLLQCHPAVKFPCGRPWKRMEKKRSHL

Kd: 30 nM
Substance: protein C (from UniProt P04070)
